The values that follow come from the supplement of paper PMC10567573.

± gives the standard deviation.

The series is described as follows: protein stability index of a GFP-peptide fusion (GPS, HEK-293T) (PSI 1-6); higher = more stable.
Where [1] appears, read: treatment: DMSO, c terminus: a fixed tail appended.
Setting [2] is: treatment: MLN4924 1 uM, 8 h, c terminus: a fixed tail appended.
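Note: 24-mer peptide tiles fused after GFP, lentivirally expressed, FACS-sorted into six equal bins by GFP/DsRed ratio, decoded by Illumina sequencing, PSI is the read-weighted mean bin number.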

Take LLTNNSGTPKDHDSPENGADSFES [ETS2]: the protein stability index amounted to 5.2 ± 0.26 under setting [1] and 5.22 ± 0.12 under setting [2].

Consider LLVQFVCQEYLARNARIVHLVEET [CPXM2], for which the protein stability index turned out to be 3.82 ± 0.26 under setting [1] and 2.63 ± 0.95 under setting [2].

For LMTSKPAEVVKILQTMLRQSAFLH [INTS4], the protein stability index came out at 2.78 ± 0.41 under setting [1] and 2.43 ± 0.29 under setting [2].

Turning to LNEDPLKWWSDRLALFPLLPKVLQ [ZBED1], the protein stability index turned out to be 2.2 ± 0.25 under setting [1] and 2.16 ± 0.1 under setting [2].

LNKELNENQLVRKQDVLGPSTTPP [SASS6]: the protein stability index came to 5 ± 0.2 under setting [1] and 5.1 ± 0.071 under setting [2].

In the case of LNQVADLLEQSLEEFAQAESKDQG [ALDH8A1], the protein stability index is, setting by setting: under setting [1], 5.18 ± 0.14; under setting [2], 5.21 ± 0.53.

LNRSESDIRYLLGYVSQQGGQRST [FEM1B]: the protein stability index under setting [1] amounted to 3.73 ± 0.19 and the protein stability index under setting [2] came to 3.59 ± 0.33.

Regarding LNYLVDPVTICCGHSFCRPCLCLS [TRIM43], the protein stability index runs as follows: under setting [1], 2.26 ± 0.34; under setting [2], 2.42 ± 0.23.

For LPAEARERSRGRSISRGRHARTHP [MATN2], the protein stability index under setting [1] worked out at 5.05 ± 0.5 and the protein stability index under setting [2] was 5.17 ± 0.23.

On to LPDGCQPLQLLREMRQALQALLKE [CBY2], for which the protein stability index is, setting by setting: under setting [1], 2.45 ± 0.35; under setting [2], 2.51 ± 0.33.

As for LPGRKLVSSAVSPSIIPQEDPSQQ [INTS4], the protein stability index by setting is: under setting [1], 5.12 ± 0.12; under setting [2], 5.02 ± 0.32.

Consider LPGWEDIESKIPLNMEEPPVEEPE [SLC19A2], for which the protein stability index was found to be 5.51 ± 0.32 under setting [1] and 5.24 ± 0.23 under setting [2].

Take LPTDGSTGVELAPRSAEPGYLVTK [PCDHGA10]: the protein stability index is 4.52 ± 0.17 under setting [1] and 4.66 ± 0.15 under setting [2].

With LPVSSPEPPPALPPAADAPVTQIG [TRIM55], the protein stability index reads like this: under setting [1], 5.23 ± 0.13; under setting [2], 5.33 ± 0.12.

As for LPYLEHVGHNHTYNMAPSALDSAD [NFE2L1], the protein stability index is 4.42 ± 0.15 under setting [1] and 4.44 ± 0.11 under setting [2].

Regarding LQFLYTGQLDEKEKDLVGLAQIAE [RHOBTB1], the protein stability index reads like this: under setting [1], 2.38 ± 0.29; under setting [2], 2.83 ± 0.25.

LQLAIPRENAQISLDGDVTFFGAL [TNFSF13B] had a protein stability index under setting [1] of 2.1 ± 0.32 and a protein stability index under setting [2] of 2.17 ± 0.36.

LQNEVRQLTEKLARVNENLARKIA [SSNA1]: the protein stability index by setting is: under setting [1], 2.27 ± 0.29; under setting [2], 2.2 ± 0.29.

Take LQRVPSYDSFDSEDYPAALPNHKP [ETS1]: the protein stability index by setting is: under setting [1], 4.45 ± 0.18; under setting [2], 4.53 ± 0.17.

Sequence LQSCGDLHTFTPAGRPRAERRPRR [FAM189A2] registered a protein stability index under setting [1] of 4.95 ± 0.27 and a protein stability index under setting [2] of 5.07 ± 0.23.

LRDIRAQYESIAAKNLQEAEEWYK [PRPH]: the protein stability index runs as follows: under setting [1], 4.24 ± 0.24; under setting [2], 4.33 ± 0.41.

In the case of LREAEIARIRDEEAQRASFLQNAV [LRRC45], the protein stability index came to 4.37 ± 0.18 under setting [1] and 4.43 ± 0.27 under setting [2].

Take LREERKKAKKNKDKYVGVSSDSVG [CLINT1]: the protein stability index came to 4.95 ± 0.17 under setting [1] and 5.09 ± 0.15 under setting [2].

For LRKYSFDGLDLDWEYPGSQGSPAV [CHIT1], the protein stability index by setting is: under setting [1], 2.32 ± 0.23; under setting [2], 2.61 ± 0.38.

Take LRRQKSLRLEWETQQELRKIREKE [IQUB]: the protein stability index turned out to be 3.94 ± 0.28 under setting [1] and 4.02 ± 0.091 under setting [2].

Take LRRVLDELTLSKTDLEMQIESLNE [KRT13]: the protein stability index runs as follows: under setting [1], 3.12 ± 0.098; under setting [2], 2.98 ± 0.068.

For the sequence LRRWLRANLAASGGYAIAVVLLQG [TSPAN10], the protein stability index is, setting by setting: under setting [1], 2.43 ± 0.68; under setting [2], 2.35 ± 0.075.

LRVEFAAENYLSGGGPGDGGGADT [FBXO33] displayed a protein stability index under setting [1] of 4.16 ± 0.18 and a protein stability index under setting [2] of 4.13 ± 0.26.

Regarding LRVSPDGTAFCSGSWDHTLRVWA [GNB5], the protein stability index amounted to 2.95 ± 0.33 (treatment: DMSO, c terminus: native) and 2.77 ± 0.77 (treatment: MLN4924 1 uM, 8 h, c terminus: native).

As to LRYVNSTRAPQRAHEVLQELRDIS [FBXO28], the protein stability index is 3.09 ± 0.21 under setting [1] and 3.35 ± 0.28 under setting [2].

LSHSPQEDWVLLGMANGQQWLQST [TLE6]: the protein stability index under setting [1] stood at 2.57 ± 0.3 and the protein stability index under setting [2] is 2.52 ± 0.26.

For LSLASLLVYVAAFSIGLGPMPWLV [SLC2A12], the protein stability index by setting is: under setting [1], 2.93 ± 0.37; under setting [2], 2.79 ± 0.68.

For the sequence LSLIGVRVDVDTYLTSQLPPLREI [NFE2L1], the protein stability index was 3.12 ± 1.1 under setting [1] and 2.57 ± 0.58 under setting [2].

As to LSQAPAEGPDLVPAALGSLTTAQI [HES6], the protein stability index by setting is: under setting [1], 4.35 ± 0.32; under setting [2], 4.36 ± 0.61.

In the case of LSSSEGLEPGSADPLANGCQGVSE [PSD2], the protein stability index runs as follows: under setting [1], 5.39 ± 0.24; under setting [2], 5.49 ± 0.12.

With LSTFSVPYFLFQHWATGYSKSSHP [SOAT1], the protein stability index reads like this: under setting [1], 2.11 ± 0.4; under setting [2], 2.56 ± 0.79.

Turning to LTQRQVNITVQKKVSQWWERLTKQ [HACD3], the protein stability index is, setting by setting: under setting [1], 2.55 ± 0.33; under setting [2], 2.81 ± 0.24.

For the sequence LTRPVPAGADLPPPKIRLKPHRLG [PWWP2B], the protein stability index is, setting by setting: under setting [1], 3.91 ± 0.29; under setting [2], 3.73 ± 0.21.

As to LTYGEVRNSKASAYCLDQGAEDGD [GALNT9], the protein stability index is 5.37 ± 0.29 under setting [1] and 5.3 ± 0.29 under setting [2].

For LTYINEDRISTTFRLTTLLMSGCS [PLK2], the protein stability index was 2.74 ± 0.63 under setting [1] and 2.56 ± 0.45 under setting [2].

On to LVARFLEQSSCTMTPDIHELVENI [FAM189A2], for which the protein stability index by setting is: under setting [1], 2.54 ± 0.55; under setting [2], 2.37 ± 0.4.

Turning to LVEAGAHTDMTNKQNKTPLDKSTT [FEM1B], the protein stability index worked out at 5.34 ± 0.29 under setting [1] and 5.27 ± 0.21 under setting [2].

LVLLRQMLLELTRRGQEPLSALLQ [BCL2L13] came in with a protein stability index under setting [1] of 2.37 ± 0.22 and a protein stability index under setting [2] of 2.62 ± 0.48.

As for LVVQIDNAKLAADDFRTKYQTEQS [KRT33B], the protein stability index was found to be 3.18 ± 0.19 under setting [1] and 3.36 ± 0.16 under setting [2].

For LYPSLNVTSFDSVVPEKLDDLVPK [ALG2], the protein stability index worked out at 4.32 ± 0.14 under setting [1] and 4.42 ± 0.11 under setting [2].

For the sequence LYVVGGQSNYDTKGKTAVDTVFRF [KLHL13], the protein stability index worked out at 2.5 ± 0.2 under setting [1] and 1.98 ± 0.31 under setting [2].

On to MAAADAEAVPARGEPQQDCCVKTE [EHMT1], for which the protein stability index under setting [1] was 5.63 ± 0.21 and the protein stability index under setting [2] amounted to 5.53 ± 0.11.

Turning to MAEQSDEAVKYYTLEEIQKHNHSK [CYB5A], the protein stability index is, setting by setting: under setting [1], 5.31 ± 0.24; under setting [2], 5.28 ± 0.19.

As to MATFPCQLCGKTFLTLEKFTIHNY [PLAGL1], the protein stability index runs as follows: under setting [1], 2.47 ± 0.23; under setting [2], 2.4 ± 0.28.

As to MDLMVEVSPRRIFANGHTYHINSI [PPP2R2C], the protein stability index reads like this: under setting [1], 2.91 ± 0.41; under setting [2], 2.8 ± 0.6.

For MDLRTAVYNAARDGKLQLLQKLLS [FEM1A], the protein stability index came out at 2.21 ± 0.26 under setting [1] and 2.28 ± 0.24 under setting [2].

As to MDMDQDSEEEKELYLNLALHLASD [PDS5B], the protein stability index is 3.82 ± 0.23 under setting [1] and 4.04 ± 0.081 under setting [2].

Turning to MDSAGQDINLNSPNKGLLSDSMTD [TPD52L2], the protein stability index is, setting by setting: under setting [1], 5.32 ± 0.2; under setting [2], 5.25 ± 0.2.

As for MDSKDVEVSSIQVRRKPQHGVCSQ [SERPINB9P1], the protein stability index by setting is: under setting [1], 4.47 ± 0.13; under setting [2], 4.64 ± 0.22.

With MDVTSRCTLGDPNKLPEGVPQPAR [KLHL20], the protein stability index runs as follows: under setting [1], 4.64 ± 0.28; under setting [2], 4.72 ± 0.23.

Consider MDYDSYQHYFYDYDCGEDFYRSTA [MYCL], for which the protein stability index under setting [1] amounted to 2.75 ± 0.35 and the protein stability index under setting [2] came out at 2.51 ± 0.26.

For MEKIPFVLGGNLQGGELVVAYPYD [CPXM2], the protein stability index came out at 2.81 ± 0.48 under setting [1] and 2.79 ± 0.77 under setting [2].

MGNILTCCINSHCGWPRGKDAPCY [DRICH1]: the protein stability index by setting is: under setting [1], 2.44 ± 0.39; under setting [2], 2.08 ± 0.15.

Regarding MGQHISLAPIHKLEEALYEYQPLQ [MNAT1], the protein stability index worked out at 3 ± 0.29 under setting [1] and 3 ± 0.048 under setting [2].

Turning to MGTEPAPSAPEALHSLPGVSLSLE [TBX6], the protein stability index reads like this: under setting [1], 4.28 ± 0.22; under setting [2], 4.41 ± 0.24.

With MHHCKRYRSPEPDPYLSYRWKRRR [CLK3], the protein stability index reads like this: under setting [1], 3.49 ± 0.39; under setting [2], 3.69 ± 0.21.

With MIHGRSVLHIVASLIILHLSGATK [NETO1], the protein stability index reads like this: under setting [1], 3.03 ± 0.24; under setting [2], 3.02 ± 0.54.

Consider MILLVNLFVLLSVVCVLLNLAGFI [FAM189A2], for which the protein stability index under setting [1] worked out at 3.03 ± 0.34 and the protein stability index under setting [2] came to 3.14 ± 0.47.

With MINSTSTQPPDESCSQNLLITQQI [P2RY14], the protein stability index is, setting by setting: under setting [1], 4.24 ± 0.16; under setting [2], 4.26 ± 0.096.

For MKDRLAELLDLSKQYDQQFPDGDD [STX11], the protein stability index runs as follows: under setting [1], 4.77 ± 0.33; under setting [2], 4.89 ± 0.15.

MLASVESVPFSFDPNTAAGWLSVS [TRIM35]: the protein stability index is, setting by setting: under setting [1], 2.31 ± 0.22; under setting [2], 2.33 ± 0.28.

Regarding MLYAKPPPTINGIKGLQRKERLKP [KRT34], the protein stability index runs as follows: under setting [1], 3.1 ± 0.28; under setting [2], 3.43 ± 0.19.

Turning to MMRTQCLLGLRTFVAFAAKLWSFF [CTDNEP1], the protein stability index worked out at 4.22 ± 0.2 under setting [1] and 4.02 ± 0.29 under setting [2].

With MPLLRDIIKMATARQETKEMARKV [ZER1], the protein stability index runs as follows: under setting [1], 2.99 ± 0.3; under setting [2], 3.06 ± 0.19.

Take MSHKQIYYSDKYDDEEFEYRHVML [CKS1B]: the protein stability index reads like this: under setting [1], 2.52 ± 0.17; under setting [2], 2.66 ± 0.18.

MSLEGTEKASWLGEQPQFWSKTQV [ELF3]: the protein stability index under setting [1] was found to be 3.31 ± 0.42 and the protein stability index under setting [2] worked out at 3.33 ± 0.16.

MVAHDETGGLLPIKRTIRVLDVNN [NET1] returned a protein stability index under setting [1] of 3.27 ± 0.21 and a protein stability index under setting [2] of 3.35 ± 0.25.
